Data set [1] can be described thus: Sialidase activity with fluorogenic substrate 4-MU-NANA. The data set is classed as biochemical. As to the method:
The sialidase activity of DAS181 was measured using the fluorogenic substrate 4-methylumbelliferyl-N-acetyl-α-D-neuraminic acid (4-MU-NANA; Sigma). One unit of sialidase is defined as the amount of enzyme that releases 10 nmol of MU from 4-MU-NANA in 10 minutes at 37° C. (50 mM CH3COOH—NaOH buffer, pH 5.5) in a reaction that contains 20 nmol of 4-MU-NANA in a 0.2 ml volume (Potier et al., Anal. Biochem., 94:287-296, 1979). The specific activity of DAS181 was determined to be 1,300 U/mg protein (0.77 μg DAS181 protein per unit of activity).

Data set [2] is described as follows: Microsphere formation, size and appearance by light microscopy. The data set is classed as physicochemical.

B1: DAS181: fusion protein: heparin (GAG) binding domain of human amphiregulin fused to a catalytic domain of Actinomyces Viscosus sialidase (SEQ ID NO:17) (protein)
chain: MGDHPQATPAPAPDASTELPASMSQAQHLAANTATDNYRIPAITTAPNGDLLISYDERPKDNGNGGSDAPNPNHIVQRRSTDGGKTWSAPTYIHQGTETGKKVGYSDPSYVVDHQTGTIFNFHVKSYDQGWGGSRGGTDPENRGIIQAEVSTSTDNGWTWTHRTITADITKDKPWTARFAASGQGIQIQHGPHAGRLVQQYTIRTAGGAVQAVSVYSDDHGKTWQAGTPIGTGMDENKVVELSDGSLMLNSRASDGSGFRKVAHSTDGGQTWSEPVSDKNLPDSVDNAQIIRAFPNAAPDDPRAKVLLLSHSPNPRPWSRDRGTISMSCDDGASWTTSKVFHEPFVGYTTIAVQSDGSIGLLSEDAHNGADYGGIWYRNFTMNWLGEQCGQKPAKRKKKGGKNGKNRRNRKKKNP
modifications: DAS181
Consider B1, for which the “specific activity of DAS181” value in data set [1] (4-MU-NANA, 37°C, pH 5.5, one unit releases 10 nmol MU in 10 minutes) is 1,300 U/mg protein. The “DAS181 protein per unit of activity” value in data set [1] (same assay) was 0.77 µg. In data set [2] (5 mg/ml or 10 mg/ml DAS181, 5 mM sodium citrate, 5% isopropanol), the size of microspheres entry is “about 1.5 micron”. Moreover, the “appearance of dry pellet” value was “a mixture of glass-like crystals and agglomerates with only a few microspheres” in data set [2] (cocktail 2): 10 mg/ml DAS181, 5 mM glycine pH 5.0, 10% isopropanol, gradual cooling); “glass-like crystals and no microspheres” in data set [2] (cocktail 4) (5 mM sodium citrate, 10% isopropanol) snap-frozen in liquid nitrogen in a glass tube); “agglomerated microspheres” in data set [2] (cocktail 4) (5 mM sodium citrate, 10% isopropanol) snap-frozen in liquid nitrogen in a plastic tube); “no microspheres were observed” in data set [2] (cocktails 1) and 3): 10 mg/ml DAS181, 5 mM glycine or 5 mM sodium citrate pH 5.0, no organic solvent). For the same molecule, in data set [2] (continuous mode: 10 mg/ml DAS181, 20% isopropanol, 2 mM sodium sulfate, heat exchanger, cooled from about 25°C to about −12°C), the “appearance of microspheres (microscopy and cascade impaction)” value was “uniform microspheres with minimal aggregation and good dispersivity”. Further, the appearance after lyophilization entry in data set [2] (same cocktail not chilled, poured directly into liquid nitrogen) is “no microspheres were observed”.

For the origin of these results see patent US20190060239A1, “Technology for the Preparation of Microparticles” (Ansun Biopharma, Inc., priority 2007, published 2019).
